Laboratory results: publication PMC5450713 (Toxins, 2017)

Assays:
[1] = molecular target: trypsin-treated Vip3Ag4 (complex of the ~65 kDa and ~21 kDa products of proteolysis) (Bacillus thuringiensis) (UniProt I6LPV9); test: SEC; SEC of trypsin-treated recombinant Vip3Ag4 compared with unprocessed material; fractions of the major peak analysed by SDS PAGE
[2] = molecular target: the molecule itself; test: SEC-MALS; Superdex 200 10/300 Increase, 100 uL at 1.0 mg/mL, 20 mM TrisHCl, 300 mM NaCl, pH 8.0, 0.7 mL/min
[3] = molecular target: the molecule itself; test: SEC; Hi-Prep 16/60 Sephacryl S-300, 20 mM TrisHCl pH 8.0, 300 mM NaCl, 0.5 mL/min, calibrated with gel filtration standards; initial Vip3Ag4 preparation after nickel affinity

Molecule	stoichiometry N [1]	stoichiometry N [2]	stoichiometry N [3]
trypsin-treated Vip3Ag4 (complex of the ~65 kDa and ~21 kDa products of proteolysis) (from UniProt I6LPV9 1-182; I6LPV9 199-787)	4		
recombinant His-tagged Vip3Ag4 protein (natural protein, Bacillus thuringiensis, UniProt I6LPV9 1-787, looked up, Expected size with His-tag 91.38 kDa; also called Vip3Ag4 protoxin; unprocessed Vip3Ag4; source: E. coli BL21(DE3), pET28b, purified (Protino Ni-TED column, Sephacryl S-300 size exclusion); not shown: His tag, N-terminal, kept) MNKNNTKLNARALPSFIDYFNGIYGFATGIKDIMNMIFKTDTGGNLTLDEILKNQQLLNEISGKLDGVNGSLNDLIAQGNLNTELSKEILKIANEQNQVLNDVNNKLNAINTMLHIYLPKITSMLNDVMKQNYALSLQIEYLSKQLQEISDKLDVINVNVLINSTLTEITPAYQRMKYVNEKFEDLTFATETTLKVKKNSSPADILDELTELTELAKSVTKNDVDGFEFYLNTFHDVMVGNNLFGRSALKTASELIAKENVKTSGSEVGNVYNFLIVLTALQAKAFLTLTTCRKLLGLADIDYTFIMNEHLDKEKEEFRVNILPTLSNTFSNPNYAKAKGSNEDAKIIVEAKPGYALVGFEMSNDSITVLKAYQAKLKQDYQVDKDSLSEIVYGDMDKLLCPDQSEQIYYTNNIAFPNEYVITKITFTKKMNSLRYEATANFYDSSTGDIDLNKTKVESSEAEYSTLSASTDGVYMPLGIISETFLTPINGFGIVVDENSKLVNLTCKSYLREVLLATDLSNKETKLIVPPIGFISNIVENGNLEGENLEPWKANNKNAYVDHTGGVNGTKALYVHKDGEFSQFIGDKLKSKTEYVIQYIVKGKASILLKDEKNGDCIYEDTNNGLEDFQTITKSFITGTDSSGVHLIFNSQNGDEAFGENFTISEIRLSEDLLSPELINSDAWVGSQGTWISGNSLTINSNVNGTFRQNLSLESYSTYSMNFNVNGFAKVTVRNSREVLFEKNYPQLSPKDISEKFTTAANNTGLYVELSRFTSGGAINFRNFSIK		4	~4
